Experimental data published in patent publication US20100064383A1.

Target: bHLH protein EGL3 from Arabidopsis (Arabidopsis) (UniProt Q9CAD0)
Experiment: cell-based or functional assay

Sequence of UniProt Q9CAD0 (Q9CAD0 whole entry): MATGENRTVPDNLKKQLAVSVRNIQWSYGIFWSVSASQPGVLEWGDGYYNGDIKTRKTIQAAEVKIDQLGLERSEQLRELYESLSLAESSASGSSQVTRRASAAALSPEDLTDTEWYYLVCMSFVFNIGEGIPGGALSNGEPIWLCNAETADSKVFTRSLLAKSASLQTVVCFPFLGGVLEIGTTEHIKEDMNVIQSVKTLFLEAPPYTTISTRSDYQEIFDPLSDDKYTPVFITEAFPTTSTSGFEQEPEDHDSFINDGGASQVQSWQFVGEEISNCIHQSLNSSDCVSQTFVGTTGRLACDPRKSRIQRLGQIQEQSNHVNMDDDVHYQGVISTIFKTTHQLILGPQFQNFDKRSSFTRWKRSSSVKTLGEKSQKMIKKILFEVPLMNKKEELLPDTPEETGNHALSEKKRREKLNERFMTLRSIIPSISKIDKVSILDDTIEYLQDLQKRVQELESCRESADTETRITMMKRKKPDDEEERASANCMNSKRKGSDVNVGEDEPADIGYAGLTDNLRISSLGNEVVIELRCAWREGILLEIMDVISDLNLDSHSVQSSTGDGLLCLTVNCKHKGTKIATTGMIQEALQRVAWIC

- induction of the VvLDOX promoter, dual-luciferase transient assay in grape cells (fold over control without MYB factor): 125 fold
Substance: VvMYBPA1
